T1: DFNB31_2, Q9P202
T1 sequence (Q9P202 274-371, limits assumed, looked up): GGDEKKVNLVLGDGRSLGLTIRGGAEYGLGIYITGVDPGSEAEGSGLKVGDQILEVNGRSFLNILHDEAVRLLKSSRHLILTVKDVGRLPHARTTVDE

T2: DFNB31_3, Q9P202
T2 sequence (Q9P202 811-907, limits assumed, looked up): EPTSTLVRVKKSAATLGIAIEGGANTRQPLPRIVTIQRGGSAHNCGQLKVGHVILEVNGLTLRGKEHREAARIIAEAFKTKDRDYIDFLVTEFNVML

T3: DLG3_3, Q92796
T3 sequence (Q92796 374-475, limits assumed, looked up): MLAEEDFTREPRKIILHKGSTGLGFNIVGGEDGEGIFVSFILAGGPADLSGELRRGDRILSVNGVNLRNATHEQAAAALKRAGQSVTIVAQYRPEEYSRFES

T4: DVL3, Q92997
T4 sequence (Q92997 244-331, limits assumed, looked up): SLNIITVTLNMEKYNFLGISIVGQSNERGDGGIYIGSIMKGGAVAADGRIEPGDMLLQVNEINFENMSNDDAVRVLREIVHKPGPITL

T5: GRIP1_5, Q9Y3R0
T5 sequence (Q9Y3R0 568-668, limits assumed, looked up): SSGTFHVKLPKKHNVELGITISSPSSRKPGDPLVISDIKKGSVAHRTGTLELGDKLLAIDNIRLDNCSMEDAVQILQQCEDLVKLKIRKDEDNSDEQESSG

T6: GRIP1_7, Q9Y3R0
T6 sequence (Q9Y3R0 999-1096, limits assumed, looked up): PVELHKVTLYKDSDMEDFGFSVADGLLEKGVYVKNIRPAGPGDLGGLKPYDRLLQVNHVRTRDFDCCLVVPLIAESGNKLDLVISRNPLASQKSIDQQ

T7: LIN7C, Q9NUP9
T7 sequence (Q9NUP9 88-185, limits assumed, looked up): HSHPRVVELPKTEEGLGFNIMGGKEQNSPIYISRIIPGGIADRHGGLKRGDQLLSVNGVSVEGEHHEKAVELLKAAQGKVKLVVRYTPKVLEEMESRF

T8: LNX2_2, Q8N448
T8 sequence (Q8N448 334-432, limits assumed, looked up): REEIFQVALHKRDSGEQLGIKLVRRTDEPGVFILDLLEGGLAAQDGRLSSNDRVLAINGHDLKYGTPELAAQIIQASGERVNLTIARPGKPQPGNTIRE

T9: LNX2_3, Q8N448
T9 sequence (Q8N448 463-564, limits assumed, looked up): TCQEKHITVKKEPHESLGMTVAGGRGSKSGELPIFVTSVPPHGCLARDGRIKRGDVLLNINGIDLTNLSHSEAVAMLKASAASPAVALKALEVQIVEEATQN

T10: MPP2, Q14168
T10 sequence (Q14168 180-250, limits assumed, looked up): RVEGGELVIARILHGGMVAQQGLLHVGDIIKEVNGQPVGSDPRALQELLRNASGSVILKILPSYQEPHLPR

T11: NHERF3_1, Q5T2W1
T11 sequence (Q5T2W1 4-100, limits assumed, looked up): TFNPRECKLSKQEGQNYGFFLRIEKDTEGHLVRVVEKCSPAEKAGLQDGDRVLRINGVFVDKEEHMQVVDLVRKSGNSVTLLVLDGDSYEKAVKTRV

T12: PTPN13_1, Q12923
T12 sequence (Q12923 1088-1188, limits assumed, looked up): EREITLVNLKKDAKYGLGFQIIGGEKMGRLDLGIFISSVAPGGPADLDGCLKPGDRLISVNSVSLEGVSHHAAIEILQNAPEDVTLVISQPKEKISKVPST


Molecular target: T1, DFNB31_2, Q9P202
Assay: holdup assay
Design: key: below the threshold = too weak to quantify, mostly under pKd 3.1 to 4
Details: plain residues with an end cap or a label only (N-terminal biotin on a linker: ado-ado)

Binder	pKd
DTKNYKQTSV [CRIPT, Q9P021]	3.74
PSVGSKKTVL [REELD1, A0A1B0GV85]	below the threshold
KSRVAFFEEL [NF2, P35240;P35240-1]	below the threshold

Molecular target: T2, DFNB31_3, Q9P202
Assay: holdup assay
Design: key: below the threshold = too weak to quantify, mostly under pKd 3.1 to 4
Details: plain residues with an end cap or a label only (N-terminal biotin on a linker: ado-ado)

Binder	pKd
DTKNYKQTSV [CRIPT, Q9P021]	below the threshold
PSVGSKKTVL [REELD1, A0A1B0GV85]	below the threshold
KSRVAFFEEL [NF2, P35240;P35240-1]	below the threshold

Molecular target: DLG1_1, Q12959
Assay: holdup assay
Design: key: below the threshold = too weak to quantify, mostly under pKd 3.1 to 4
Details: plain residues with an end cap or a label only (N-terminal biotin on a linker: ado-ado)

Binder	pKd
DTKNYKQTSV [CRIPT, Q9P021]	4.35
PSVGSKKTVL [REELD1, A0A1B0GV85]	below the threshold
KSRVAFFEEL [NF2, P35240;P35240-1]	below the threshold

Molecular target: T3, DLG3_3, Q92796
Assay: holdup assay
Design: key: below the threshold = too weak to quantify, mostly under pKd 3.1 to 4
Details: plain residues with an end cap or a label only (N-terminal biotin on a linker: ado-ado)

Binder	pKd
DTKNYKQTSV [CRIPT, Q9P021]	5.16
PSVGSKKTVL [REELD1, A0A1B0GV85]	below the threshold
KSRVAFFEEL [NF2, P35240;P35240-1]	below the threshold

Molecular target: T4, DVL3, Q92997
Assay: holdup assay
Design: key: below the threshold = too weak to quantify, mostly under pKd 3.1 to 4
Details: plain residues with an end cap or a label only (N-terminal biotin on a linker: ado-ado)

Binder	pKd
DTKNYKQTSV [CRIPT, Q9P021]	below the threshold
PSVGSKKTVL [REELD1, A0A1B0GV85]	below the threshold

Molecular target: FRMPD3, Q5JV73
Sequence (Q5JV73 12-100): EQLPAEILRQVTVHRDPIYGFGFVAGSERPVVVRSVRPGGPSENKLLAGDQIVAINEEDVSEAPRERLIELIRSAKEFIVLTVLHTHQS
Assay: holdup assay
Design: key: below the threshold = too weak to quantify, mostly under pKd 3.1 to 4
Details: plain residues with an end cap or a label only (N-terminal biotin on a linker: ado-ado)

Binder	pKd
DTKNYKQTSV [CRIPT, Q9P021]	below the threshold
PSVGSKKTVL [REELD1, A0A1B0GV85]	below the threshold

Molecular target: T5, GRIP1_5, Q9Y3R0
Assay: holdup assay
Design: key: below the threshold = too weak to quantify, mostly under pKd 3.1 to 4
Details: plain residues with an end cap or a label only (N-terminal biotin on a linker: ado-ado)

Binder	pKd
DTKNYKQTSV [CRIPT, Q9P021]	below the threshold
PSVGSKKTVL [REELD1, A0A1B0GV85]	below the threshold

Molecular target: T6, GRIP1_7, Q9Y3R0
Assay: holdup assay
Design: key: below the threshold = too weak to quantify, mostly under pKd 3.1 to 4
Details: plain residues with an end cap or a label only (N-terminal biotin on a linker: ado-ado)

Binder	pKd
DTKNYKQTSV [CRIPT, Q9P021]	below the threshold
PSVGSKKTVL [REELD1, A0A1B0GV85]	below the threshold

Molecular target: GRIP2_6, Q9C0E4
Sequence (Q9C0E4 648-740): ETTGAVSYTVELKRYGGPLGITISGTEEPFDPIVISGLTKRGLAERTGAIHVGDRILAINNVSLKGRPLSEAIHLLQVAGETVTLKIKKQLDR
Assay: holdup assay
Design: key: below the threshold = too weak to quantify, mostly under pKd 3.1 to 4
Details: plain residues with an end cap or a label only (N-terminal biotin on a linker: ado-ado)

Binder	pKd
DTKNYKQTSV [CRIPT, Q9P021]	3.52
PSVGSKKTVL [REELD1, A0A1B0GV85]	below the threshold

Molecular target: IL16_3, Q14005
Sequence (Q14005 1107-1207): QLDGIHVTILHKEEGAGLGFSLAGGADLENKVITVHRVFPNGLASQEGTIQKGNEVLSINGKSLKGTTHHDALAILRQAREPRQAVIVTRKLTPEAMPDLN
Assay: holdup assay
Design: key: below the threshold = too weak to quantify, mostly under pKd 3.1 to 4
Details: plain residues with an end cap or a label only (N-terminal biotin on a linker: ado-ado)

Binder	pKd
DTKNYKQTSV [CRIPT, Q9P021]	below the threshold
PSVGSKKTVL [REELD1, A0A1B0GV85]	below the threshold
KSRVAFFEEL [NF2, P35240;P35240-1]	below the threshold

Molecular target: Inadl_4, Q8NI35
Sequence (Q8NI35 547-651): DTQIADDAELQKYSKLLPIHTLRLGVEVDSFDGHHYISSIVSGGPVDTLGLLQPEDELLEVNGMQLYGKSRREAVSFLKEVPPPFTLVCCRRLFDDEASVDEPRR
Assay: holdup assay
Design: key: below the threshold = too weak to quantify, mostly under pKd 3.1 to 4
Details: plain residues with an end cap or a label only (N-terminal biotin on a linker: ado-ado)

Binder	pKd
DTKNYKQTSV [CRIPT, Q9P021]	below the threshold
PSVGSKKTVL [REELD1, A0A1B0GV85]	below the threshold
KSRVAFFEEL [NF2, P35240;P35240-1]	below the threshold

Molecular target: LIMK2, P53671
Sequence (P53671 143-248): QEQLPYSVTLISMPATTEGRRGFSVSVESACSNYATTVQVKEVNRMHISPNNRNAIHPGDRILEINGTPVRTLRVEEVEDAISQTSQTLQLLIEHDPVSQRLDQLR
Assay: holdup assay
Design: key: below the threshold = too weak to quantify, mostly under pKd 3.1 to 4
Details: plain residues with an end cap or a label only (N-terminal biotin on a linker: ado-ado)

Binder	pKd
DTKNYKQTSV [CRIPT, Q9P021]	below the threshold
PSVGSKKTVL [REELD1, A0A1B0GV85]	below the threshold
KSRVAFFEEL [NF2, P35240;P35240-1]	below the threshold

Molecular target: T7, LIN7C, Q9NUP9
Assay: holdup assay
Design: key: below the threshold = too weak to quantify, mostly under pKd 3.1 to 4
Details: plain residues with an end cap or a label only (N-terminal biotin on a linker: ado-ado)

Binder	pKd
DTKNYKQTSV [CRIPT, Q9P021]	3.5
PSVGSKKTVL [REELD1, A0A1B0GV85]	below the threshold
KSRVAFFEEL [NF2, P35240;P35240-1]	below the threshold

Molecular target: LNX1_1, Q8TBB1
Sequence (Q8TBB1 261-371): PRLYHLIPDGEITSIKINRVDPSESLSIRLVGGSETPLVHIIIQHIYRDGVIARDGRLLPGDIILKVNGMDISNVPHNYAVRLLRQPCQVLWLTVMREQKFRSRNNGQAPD
Assay: holdup assay
Design: key: below the threshold = too weak to quantify, mostly under pKd 3.1 to 4
Details: plain residues with an end cap or a label only (N-terminal biotin on a linker: ado-ado)

Binder	pKd
DTKNYKQTSV [CRIPT, Q9P021]	3.78
PSVGSKKTVL [REELD1, A0A1B0GV85]	below the threshold

Molecular target: T8, LNX2_2, Q8N448
Assay: holdup assay
Design: key: below the threshold = too weak to quantify, mostly under pKd 3.1 to 4
Details: plain residues with an end cap or a label only (N-terminal biotin on a linker: ado-ado)

Binder	pKd
DTKNYKQTSV [CRIPT, Q9P021]	3.66
PSVGSKKTVL [REELD1, A0A1B0GV85]	below the threshold
KSRVAFFEEL [NF2, P35240;P35240-1]	below the threshold

Molecular target: T9, LNX2_3, Q8N448
Assay: holdup assay
Design: key: below the threshold = too weak to quantify, mostly under pKd 3.1 to 4
Details: plain residues with an end cap or a label only (N-terminal biotin on a linker: ado-ado)

Binder	pKd
DTKNYKQTSV [CRIPT, Q9P021]	below the threshold
PSVGSKKTVL [REELD1, A0A1B0GV85]	below the threshold
KSRVAFFEEL [NF2, P35240;P35240-1]	below the threshold

Molecular target: MAGI1_2, Q96QZ7
Sequence (Q96QZ7 456-580): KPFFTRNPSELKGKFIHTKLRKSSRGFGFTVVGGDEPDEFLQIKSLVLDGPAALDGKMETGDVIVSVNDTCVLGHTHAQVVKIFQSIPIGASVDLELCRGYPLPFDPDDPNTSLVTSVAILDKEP
Assay: holdup assay
Design: key: below the threshold = too weak to quantify, mostly under pKd 3.1 to 4
Details: plain residues with an end cap or a label only (N-terminal biotin on a linker: ado-ado)

Binder	pKd
DTKNYKQTSV [CRIPT, Q9P021]	4.32
PSVGSKKTVL [REELD1, A0A1B0GV85]	3.56

Molecular target: MAGI2_3, Q86UL8
Sequence (Q86UL8 600-682): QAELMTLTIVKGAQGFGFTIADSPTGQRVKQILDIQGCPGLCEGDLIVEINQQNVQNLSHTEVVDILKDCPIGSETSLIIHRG
Assay: holdup assay
Design: key: below the threshold = too weak to quantify, mostly under pKd 3.1 to 4
Details: plain residues with an end cap or a label only (N-terminal biotin on a linker: ado-ado)

Binder	pKd
DTKNYKQTSV [CRIPT, Q9P021]	3.94
PSVGSKKTVL [REELD1, A0A1B0GV85]	below the threshold

Molecular target: T10, MPP2, Q14168
Assay: holdup assay
Design: key: below the threshold = too weak to quantify, mostly under pKd 3.1 to 4
Details: plain residues with an end cap or a label only (N-terminal biotin on a linker: ado-ado)

Binder	pKd
DTKNYKQTSV [CRIPT, Q9P021]	below the threshold
PSVGSKKTVL [REELD1, A0A1B0GV85]	below the threshold
KSRVAFFEEL [NF2, P35240;P35240-1]	below the threshold

Molecular target: T11, NHERF3_1, Q5T2W1
Assay: holdup assay
Design: key: below the threshold = too weak to quantify, mostly under pKd 3.1 to 4
Details: plain residues with an end cap or a label only (N-terminal biotin on a linker: ado-ado)

Binder	pKd
DTKNYKQTSV [CRIPT, Q9P021]	4.59
PSVGSKKTVL [REELD1, A0A1B0GV85]	3.72
KSRVAFFEEL [NF2, P35240;P35240-1]	4.18

Molecular target: NHERF4_1, Q86UT5-2
Sequence (Q86UT5 other isoform, or with tags, fused parts or gaps): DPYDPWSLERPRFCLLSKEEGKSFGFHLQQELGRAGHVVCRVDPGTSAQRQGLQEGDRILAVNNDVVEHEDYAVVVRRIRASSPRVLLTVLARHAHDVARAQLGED
Assay: holdup assay
Design: key: below the threshold = too weak to quantify, mostly under pKd 3.1 to 4
Details: plain residues with an end cap or a label only (N-terminal biotin on a linker: ado-ado)

Binder	pKd
DTKNYKQTSV [CRIPT, Q9P021]	3.53
PSVGSKKTVL [REELD1, A0A1B0GV85]	3.95
KSRVAFFEEL [NF2, P35240;P35240-1]	4.31

Molecular target: T12, PTPN13_1, Q12923
Assay: holdup assay
Design: key: below the threshold = too weak to quantify, mostly under pKd 3.1 to 4
Details: plain residues with an end cap or a label only (N-terminal biotin on a linker: ado-ado)

Binder	pKd
DTKNYKQTSV [CRIPT, Q9P021]	below the threshold
PSVGSKKTVL [REELD1, A0A1B0GV85]	below the threshold
KSRVAFFEEL [NF2, P35240;P35240-1]	below the threshold

Molecular target: PTPN3, P26045
Sequence (P26045 505-587): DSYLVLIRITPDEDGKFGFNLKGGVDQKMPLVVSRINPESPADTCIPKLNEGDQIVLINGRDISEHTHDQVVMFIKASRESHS
Assay: holdup assay
Design: key: below the threshold = too weak to quantify, mostly under pKd 3.1 to 4
Details: plain residues with an end cap or a label only (N-terminal biotin on a linker: ado-ado)

Binder	pKd
DTKNYKQTSV [CRIPT, Q9P021]	5.07
PSVGSKKTVL [REELD1, A0A1B0GV85]	3.64
KSRVAFFEEL [NF2, P35240;P35240-1]	4.22

Molecular target: SCRIB_2, Q14160
Sequence (Q14160 857-960): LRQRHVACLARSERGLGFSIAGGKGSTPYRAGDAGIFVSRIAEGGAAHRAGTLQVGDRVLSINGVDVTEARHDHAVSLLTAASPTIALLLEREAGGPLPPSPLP
Assay: holdup assay
Design: key: below the threshold = too weak to quantify, mostly under pKd 3.1 to 4
Details: plain residues with an end cap or a label only (N-terminal biotin on a linker: ado-ado)

Binder	pKd
DTKNYKQTSV [CRIPT, Q9P021]	4.61
PSVGSKKTVL [REELD1, A0A1B0GV85]	below the threshold
KSRVAFFEEL [NF2, P35240;P35240-1]	below the threshold

Molecular target: SCRIB_3, Q14160
Sequence (Q14160 999-1103): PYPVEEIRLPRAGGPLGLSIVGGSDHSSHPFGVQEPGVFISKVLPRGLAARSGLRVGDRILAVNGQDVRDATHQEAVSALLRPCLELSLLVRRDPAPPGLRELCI
Assay: holdup assay
Design: key: below the threshold = too weak to quantify, mostly under pKd 3.1 to 4
Details: plain residues with an end cap or a label only (N-terminal biotin on a linker: ado-ado)

Binder	pKd
DTKNYKQTSV [CRIPT, Q9P021]	4.98
PSVGSKKTVL [REELD1, A0A1B0GV85]	3.6

Molecular target: TJP2_1, Q9UDY2
Sequence (Q9UDY2 24-128): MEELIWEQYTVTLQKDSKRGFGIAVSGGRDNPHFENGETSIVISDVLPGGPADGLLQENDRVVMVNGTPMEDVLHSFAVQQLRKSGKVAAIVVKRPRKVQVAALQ
Assay: holdup assay
Design: key: below the threshold = too weak to quantify, mostly under pKd 3.1 to 4
Details: plain residues with an end cap or a label only (N-terminal biotin on a linker: ado-ado)

Binder	pKd
DTKNYKQTSV [CRIPT, Q9P021]	below the threshold
PSVGSKKTVL [REELD1, A0A1B0GV85]	4.1

— PMC9482650, “Quantitative fragmentomics allow affinity mapping of interactomes” (Nature Communications, 2022)
